This test concerns the target TEAD4 (UniProt Q15561). The test can be described thus: co-immunoprecipitation. As to conditions: reference: wild type SP1.

As for “SP1 (from UniProt P08047) T668 single mutant”, the “binding against the reference” value (sites T668) is listed as “weaker”.

With “SP1 (from UniProt P08047) S670 single mutant”, the “binding against the reference” value (sites S670) is recorded as “weaker”.

For “SP1 (from UniProt P08047) T681 single mutant”, the “binding against the reference” value (sites T681) is “weaker”.

These data come from PMC12089306.
